Patent US10023615B2, “Efficient transport into white blood cells” (priority 2008, dated 2018)
Ends that are not written are not given here.

Columns and labels:
[1] = tested on: noise trauma (120 dB at 6 kHz); assay: Treatment of noise trauma, auditory brainstem response; type: in vivo, guinea pigs; details: 100 μM in hyaluronic acid gel on round window membrane; before or after noise trauma
Procedure: 19. […] Untreated ears served as control. Hearing threshold shifts are evaluated by auditory brainstem response measurements 20 minutes after noise trauma (temporary threshold shift, TTS) and 15 days following the trauma (permanent threshold shift, PTS).

[2] = Tissue distribution of C14 radiolabeled D-TAT-tagged peptides; type: in vivo, mouse; details: 1 mg/kg s.c., i.v., i.p.; 72 hours after injection
Procedure: Mice were treated via three different routes of administration (s.c., i.v., i.p.) with radiolabeled peptides with C^14 (1 mg/kg). Animals were sacrificed 72 hours after injection and processed for immunoradiography. […] This illustrates that the transporter D-TAT is responsible for the tissue distribution.

[3] = tested on: leucocytes (cd11b positive cells) in inflamed hind paw; assay: Immunohistochemistry and CD11b staining on paw from CFA-induced inflammation (4 h); type: in vivo, C57/Bl6 mice; details: 10 μg/kg i.v. one hour prior to CFA; 4 h after CFA
Procedure: FIG. 19A, FIG. 19B, and FIG. 19C: Immunohistochemistry staining on paw from CFA-induced inflammation (4 h). Upper panels represent the Hematoxylin and Eosin (H&E) staining of hindpays. From left to right: a saline-treated animal which was not treated with CFA (Complete Freund's Adjuvant), a saline-treated animal which received CFA and a XG-102-(SEQ ID NO: 233) treated animal which also received a CFA injection. After CFA treatment, muscular and epithelial layers appear to be less organized due to edema. The presence of XG-102 (SEQ ID NO:233) positive cells was detected only in animal treated with XG-102 (upper right panel). […] 19A: Magnification ×20; 19B: Magnification ×40; 19C: Magnification ×100.
FIG. 20A represents the hind paw section of a CFA treated animal stained with three different dyes. The four upper panels represent the same portion at high magnification of a distal region. Distribution of the leucocyte marker (mainly granulocytes, macrophages and monocytes) cd11b (first from left) and XG-102 (SEQ ID NO: 233, second from left) as well as the Dapi nuclear stain (3rd from left) are indicated. The upper right panel represents the merge image of cd11b and XG-102 positive stain. […]

## dqsrpvqpflnIttprkprpprrrqrrkkrg (DQSRPVQPFLNLTTPRKPRPPRRRQRRKKRG; not fully specified (some residues); printed as dqsrpvqpflnIttprkprpprrrqrrkkrg) [XG-102]
[1]
  permanent hearing loss (permanent threshold shift): protected against permanent hearing loss even if applied after exposure to excessive noise
[2]
  tissue distribution (accumulation): in the liver, spleen, and bone marrow predominantly
[3]
  co-localization with cd11b positive leucocytes: co-localizes with a certain leucocyte population
  presence in leucocytes of inflamed paw (HRP staining): presence of XG-102 in infiltrating leucocytes
